From paper PMC8748794

Target: Spt16/Pob3 heterodimer (yeast FACT), full length (yeast) (UniProt P32558)
Chain of UniProt P32558 (P32558 whole entry, chain 1 of 2): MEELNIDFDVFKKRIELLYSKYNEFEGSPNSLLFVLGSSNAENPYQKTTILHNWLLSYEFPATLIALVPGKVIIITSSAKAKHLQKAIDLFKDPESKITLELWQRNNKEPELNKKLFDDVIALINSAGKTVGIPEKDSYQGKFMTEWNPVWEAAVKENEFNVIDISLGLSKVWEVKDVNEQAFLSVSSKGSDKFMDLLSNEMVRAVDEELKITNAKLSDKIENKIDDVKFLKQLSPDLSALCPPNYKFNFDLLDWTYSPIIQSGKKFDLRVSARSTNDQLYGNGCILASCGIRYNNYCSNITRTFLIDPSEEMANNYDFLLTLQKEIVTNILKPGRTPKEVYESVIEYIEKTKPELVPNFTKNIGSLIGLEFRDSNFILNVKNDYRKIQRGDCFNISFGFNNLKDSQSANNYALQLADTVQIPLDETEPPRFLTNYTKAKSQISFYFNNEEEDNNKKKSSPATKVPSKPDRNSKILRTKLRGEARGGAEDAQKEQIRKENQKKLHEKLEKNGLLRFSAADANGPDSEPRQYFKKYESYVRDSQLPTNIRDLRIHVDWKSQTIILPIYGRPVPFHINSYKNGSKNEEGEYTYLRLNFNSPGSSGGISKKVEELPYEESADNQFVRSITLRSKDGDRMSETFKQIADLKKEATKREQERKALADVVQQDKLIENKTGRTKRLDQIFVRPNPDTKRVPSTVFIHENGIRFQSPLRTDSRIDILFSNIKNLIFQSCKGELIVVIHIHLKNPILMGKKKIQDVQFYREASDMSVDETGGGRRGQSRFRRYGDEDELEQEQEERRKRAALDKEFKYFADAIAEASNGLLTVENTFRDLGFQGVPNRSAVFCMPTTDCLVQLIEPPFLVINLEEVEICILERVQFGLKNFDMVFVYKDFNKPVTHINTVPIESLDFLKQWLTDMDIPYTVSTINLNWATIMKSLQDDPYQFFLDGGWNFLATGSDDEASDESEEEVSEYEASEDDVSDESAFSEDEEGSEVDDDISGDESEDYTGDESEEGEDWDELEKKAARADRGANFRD
Chain of UniProt P32558 (Q04636 whole entry, chain 2 of 2, further chain): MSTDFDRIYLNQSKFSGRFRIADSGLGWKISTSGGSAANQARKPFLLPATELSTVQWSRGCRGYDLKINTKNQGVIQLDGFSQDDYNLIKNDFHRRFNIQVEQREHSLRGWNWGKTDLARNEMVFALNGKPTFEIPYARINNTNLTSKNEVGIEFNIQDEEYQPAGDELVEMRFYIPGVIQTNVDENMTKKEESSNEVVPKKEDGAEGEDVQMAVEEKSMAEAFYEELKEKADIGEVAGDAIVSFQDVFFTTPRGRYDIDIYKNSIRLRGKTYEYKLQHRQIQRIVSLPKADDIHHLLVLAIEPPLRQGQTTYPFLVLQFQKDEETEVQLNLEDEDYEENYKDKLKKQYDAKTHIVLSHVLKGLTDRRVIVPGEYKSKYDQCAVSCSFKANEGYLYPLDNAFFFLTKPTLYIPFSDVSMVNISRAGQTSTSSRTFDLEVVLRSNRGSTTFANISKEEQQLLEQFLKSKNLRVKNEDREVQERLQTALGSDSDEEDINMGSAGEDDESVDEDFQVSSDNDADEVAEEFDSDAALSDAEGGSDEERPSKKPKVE

fraction of FACT particles in the open conformation (>90°) by negative-stain EM; 36% for FACT alone: 51%
Substance: Nhp6 (non-histone protein), HMGB-domain factor (from UniProt P11632 1-93) (natural protein)
